Results published in article PMC5854732.

Legend:
[1] = biological target: toposome (major yolk protein) purified from gonads of Paracentrotus lividus collected prior to the bloom (C) (Paracentrotus lividus (endogenous in gonads)); experiment: SEC; gel filtration on Sephacryl S-400 HR (1.8 x 42 cm), Tris-HCl buffer pH 8.0 with 150 mM NaCl, 0.5 ml/min; size by comparison with standards (blue dextran 2,000 kDa, thyroglobulin 669 kDa, apoferritin 443 kDa); apparent molecular weight
[2] = biological target: toposome (major yolk protein) purified from gonads of Paracentrotus lividus collected at the bloom phase (T0) (Paracentrotus lividus (endogenous in gonads)); experiment: as above

Substance | stoichiometry N [1] | stoichiometry N [2]
toposome (major yolk protein) purified from gonads of Paracentrotus lividus collected prior to the bloom (C) (natural protein) | 3 | 
toposome (major yolk protein) purified from gonads of Paracentrotus lividus collected at the bloom phase (T0) (natural protein) |  | 3
